From the RNAGym collection of RNA variant scans (doi:10.1073/pnas.2313332121)

B1: TPR t1 (parent)
chain: GACCAAUCUGCCCUCAGAGCUCGAGAACAUCUUCGGAUGCAGAGGAGGCAGGCUUCGGUGGCGCGAUAGCGCCAACGUCCUCAACCUCCAAUGCAUCCCACCACAUGAUGAUGCCUGAAGAGCCUUGGUUUUUUG

Variants of: B1
Assay: polymerase ribozyme fitness, log enrichment relative to wild type (log ratio); higher = more active; in vitro selection for triplet polymerase activity
Summary of the method: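 Mutant libraries of both subunits of a heterodimeric triplet polymerase ribozyme were PCR-built, transcribed, and selected once in triplicate, with frozen incubation at −7 °C and capture of gel-excised extended constructs on streptavidin beads before RT-PCR. Illumina sequencing of input and output libraries was filtered to genotypes with ≥10 input reads and ≥1 read per output. Fitness is the logarithm of genotype enrichment over wild-type enrichment, using inverse-variance-weighted replicate averages. The logarithm is base 2.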

| Variant | polymerase ribozyme fitness (log ratio) |
| --- | --- |
| G42C A43U C86U U96C | -2.55 |
| A41U C53U | -1.15 |
| A41U C53G G77A | -1.35 |
| A41U G42C C70A | -6.24 |
| G42U G77A C88A U92C | -3.21 |
| G42C G48C U55C | -1.95 |
| A41U C70U | -2.3 |
| A41U C70G | -5.5 |
| A41U G57C | -1.91 |
| G42A G47U G57U G58U | -3.58 |
| G42C U54G C88A C102A | -5.41 |
| G42U G71C | -3.19 |
| G42C U55A G71C G113U G120U C123U U125A | -5.08 |
| G42C G63A G93C G113U | -5.92 |
| A41U C72A G113C | -2.13 |
| G42A A46G G120U | -2.64 |
| A41U C72U C88U | -1.2 |
| G42A G44A C62U G63A U112G G120C | -5.64 |
| G42U C82U | -1.44 |
| G42U C82A | -1.61 |
| G42U G69U C115A | -1.45 |
| A41U G57C C62U | -0.95 |
| G42A C70A | -4.1 |
| G42A U130C U133A | -1.86 |

| Variant | polymerase ribozyme fitness (log ratio) |
| --- | --- |
| A41U C53G G58A C70U G110C U131A | -6.81 |
| A41U G61C C115A G117A | -5.8 |
| G42C G52U G60C | -2.14 |
| G42U C49A C53A U59C C82U | -2.94 |
| G42U A68C G107C C114U G128C U133G | -6.38 |
| G42A A118U | -1.15 |
| G42U G47C C49G | -2.84 |
| G42A G48A G69C | -4.05 |
| A41U U78G C82U A91G A121C | -1.41 |
| G42A C89U G117A | -3.19 |
| G42A G63C C94G U130G | -4.71 |
| A41U U112A | -0.325 |
| A41U U112C | 0.631 |
| G42U G45A | -1.25 |
| A41U G120C | -0.366 |
| G42A U55G | -1.85 |
| G42U A84U C115A G127A | -4.77 |
| A41U U87C A90U A91C | -1.28 |
| G42U G77U U92A U106A | -2.9 |
| G42A G93A C114U | -3.01 |
| G42C C49A C56U U96A | -3.16 |
| A41U G69U G93C | -0.276 |
| G42U C89U | -0.954 |
| G42U A50C U92C | -2.73 |

| Variant | polymerase ribozyme fitness (log ratio) |
| --- | --- |
| G42A C70U G117A | -4.31 |
| G42U C56G C73A | -4.4 |
| G42C C49G C56U | -2.41 |
| G42A C89A A108G | -4.56 |
| G42A C94G | -3.05 |
| A41U G58C C89G | -2.91 |
| G42U A46U | -1.99 |
| A41U G45U C53G U55G G63U | -6.72 |
| G42U G71A C86U U96A C97A U116G | -6.66 |
| A41U C53U U112G | -2.23 |
| G42U C62A | -3.21 |
| G42A U81C U129G | -4.71 |
| G42A G44C A46U G71U A111G G120A | -3.41 |
| G42C G77A | -1.99 |
| G42A C85A C94U | -3.73 |
| G42U C115G | -1.8 |
| G42U C115U | -1.27 |
| A41U C94G | -1.87 |
| A41U G52C U87A | -1.57 |
| G42C C115U | -2.24 |
| G42U C73G | -2.39 |
| G42U G44A C70A G127U | -4.25 |
| A41U G58C C62A G117C U126A G128A | -7.88 |
| G42C U96G C124U | -0.43 |

| Variant | polymerase ribozyme fitness (log ratio) |
| --- | --- |
| G42U G58C C82G U87C | -2.71 |
| G42C A50C | -2.31 |
| G42C A50U | -3.32 |
| G42U C56A C64U | -2.46 |
| A41U U116C C124U U130A | -3.9 |
| G42C G61C | -4.07 |
| A41U G45A U55C | -1.85 |
| G42A C98U | -2.55 |
| G42C G128U U130A G135U | -4.23 |
| G42C G57U U126G | -3.49 |
| G42A G44U C99A A100U U109A | -5.27 |
| G42A A103U U112A | -7.34 |
| G42C A91G G113U | -3.17 |
| G42A G122A | -2.59 |
| A41U G45A | -1.87 |
| A41U C53G G113C | -3.41 |
| G42U A75G G93C | -2.29 |
| G42U A100C U116C | -4.27 |
| A41U U78A U112C | 0.679 |
| G42U G77C C80U A84U C97U | -3.47 |
| G42A G45C C123U | -1.9 |
| G42U G58C U87C | -0.174 |
| G42U C72A U96C | -1.5 |
| G42U A46U C62U | -2.07 |

| Variant | polymerase ribozyme fitness (log ratio) |
| --- | --- |
| G42U G44U G45A U54G C89G | -2.57 |
| G42A U129G | -2.39 |
| G42U G45U C88G G110A | -3.96 |
| A41U G63A | -2.73 |
| G42U G44U C53U G69U C79A G127U | -3.88 |
| G42U G71U C101U | -1.49 |
| G42A U54C | -1.78 |
| G42A G48U C56U C114U U131C | -3.37 |
| G42C C70G | -5.52 |
| G42C G71U G117C | -4.87 |
| G42A G44A G47U C64U | -4.22 |
| A41U C88U | -1.27 |
| A41U C88G | -2.13 |
| G42A G48A C80A U96A | -6.92 |
| G42U G48A G52C C56G G69U G127U | -3.16 |
| G42C C79U C82G C85G G110C | -5.74 |
| A41U C56U G110A | -2.95 |
| G42A G69U C89G | -0.811 |
| A41U G44C G47U C70U A84C A108U G117U | -6.98 |
| A41U C53U G117C U131A | -5.46 |
| A41U C114A | -3.03 |
| A41U C114G | -2.94 |
| G42C G71U A84U | -3.18 |
| G42A A46C G63C U106A | -3.82 |

| Variant | polymerase ribozyme fitness (log ratio) |
| --- | --- |
| A41U C72U A83U U87G U92A | -0.865 |
| G42C G69U A91U C102U C123U | -0.432 |
| G42A C72A C123A | -1.85 |
| A41U C56G G69C U92A | -5.43 |
| G42C G44A G69C C94U C114A | -5.06 |
| G42A G52C C62A | -4.83 |
| G42C G44U U112A | -1.44 |
| G42U G71U G127U | -2.72 |
| G42U C56U G127U | -2.75 |
| G42C C49A | -1.88 |
| G42C A103G C114G G122U | -6.92 |
| A41U C73G A103C | -6.66 |
| G42A A83C U112A | -1.42 |
| G42C G48C C79A | -6.14 |
| A41U G69C G127U | -3.25 |
| G42A C70U U81A G93U | -6.73 |
| G42C C49A G93C | -3.52 |
| G42U C94G U96C | -4.23 |
| G42U C73A U125A | -1.74 |
| G42C U87G | -1.08 |
| G42C U87A | -1.23 |
| A41U G45C C72A U129C | -2.79 |
| G42C U78A C85U C123G G135U | -2.89 |
| A41U C56U A75G U78C C82G A118G G120U A121U U129G | -3.43 |

| Variant | polymerase ribozyme fitness (log ratio) |
| --- | --- |
| A41U C70G G120U | -6.06 |
| G42A A43U U96A | -2.41 |
| G42C C89U C101G | -2.74 |
| A41U C56G G71U C79U G117C | -6.29 |
| G42A C88A | -1.56 |
| G42A C88G | -2.63 |
| G42A C70A C85U | -4.88 |
| G42U C49U | -2.98 |
| G42U A68U C123G U130A | -5.54 |
| A41U C101U | -1.85 |
| G42A A100C U112G | -4.73 |
| G42C G128C | -4.09 |
| G42C G128A | -3.12 |
| G42U C101U G113C | -2.52 |
| G42U C94U G113A | -2.64 |
| G42C C76A U78A | -2.31 |
| G42U G60A G128C | -3.97 |
| G42C C72U G113C | -2.98 |
| G42U G60A U87A G113A | -3.78 |
| G42U A43C | -1.95 |
| G42C G71A C72A C115U | -5.81 |
| A41U G51A G57C C82A U96G C114U U116A | -7.09 |
| G42A C89U | -1.16 |
